From patent US20190187132A1
Where two headings read alike, the source gives them in different places.

B1: Anti-[TRISP][18H1] (antibody, V domains shown)
VH: QVQLKESGPGLVQPSQTLSLTCTVSGLSLTSNSVGWIRQPPGKGLEWMGIIWSNGGTDYNSAIKSRLSISRDTSKSQVFLKMHSLQTEDTAMYFCARGPYYGSYRLGYFDYWGQGVMVTVSS
VL: DVVMTQSPSSLAVSAGETVTLNCQSSQSLLYSGTQNNYLAWYQQKPGQSPKLLISWASTRQSGVPLRFIGSGSGTDFTLTITSVQAEDLAIYYCQQFYDTPLTFGSGTKLEIK
B2: Anti-[TRISP][C9] (antibody, V domains shown)
VH: AVTLDESGGGLQTPGGALSLVCKASGFSISSYSMQWVRQAPGKGLEWVAGIYYDGNTWYAPAVKGRATISRDNGQSTVRLRLNNLRAEDTATYFCAKYAGGYSIDAWGHGTEVIVSS
VL: ALTQPSSVSANPGETVKITCSGSSGSYGWYQQKSPGSGPVTVIYYNDKRPSDIPSRFSGSASGSTATLTITGVQAEDEAVYFCGGYDSSTYVGIFGAGTTLTVL

How the values were obtained:
[1] = target: Trichinella spiralis lysate
[2] = target: Trichinella spiralis lysate; remark: listed apart in the source
[3] = target: Trichinella spiralis E/S antigen

Binder | detection limit [1] | detection limit [2] | detection limit [3]
B1 | 1 ng/mL | 10 µg/mL | –
B2 | – | – | 6 ng/mL
